According to PMC5802837, “Lymphocyte-specific protein 1 regulates mechanosensory oscillation of podosomes and actin isoform-based actomyosin symmetry breaking” (Nature Communications, 2018):

Assays:
Experiment in all cases: co-IP; anti-GFP immunoprecipitation (µMACS anti-GFP Microbeads) from lysates of macrophages expressing GFP-fused constructs (500 mM NaCl, 2% Triton X-100, 50 mM Tris-HCl pH 8.0), washes with RIPA and high-salt RIPA; GFP alone as control; western blot of endogenous partners, densitometry
[1] = biological target: supervillin construct SV1-830-GFP (UniProt O46385)
[2] = biological target: GFP-fused full length LSP1 (human) (UniProt P33241)
[3] = biological target: T1, supervillin construct SV1-830-GFP (UniProt O46385-2 1-830); details: partners not purified
T1 construct: supervillin, N-terminal region, residues 1-830; as far as recalled the Luna laboratory constructs are bovine supervillin; also called GFP-SV1-830; GFP-supervillin 1-830; source: primary human macrophages, transfected, in lysate

“Ser19 phosphorylated myosin light chain (pMLC), endogenous (from UniProt P24844 1-172) (natural protein)” was tested. Which coprecipitated amount relative to LSP1-GFP [1] did it give?
The coprecipitated amount relative to LSP1-GFP was 9 fold.

For “α-cardiac actin, endogenous (from UniProt P68032 1-377) (natural protein)”, which coprecipitated α-cardiac actin relative to SV1-830-GFP [2] is on record?
Its coprecipitated α-cardiac actin relative to SV1-830-GFP is 0.33 fold.

B1: myosin IIA, endogenous (natural protein, UniProt P35579 1-1960, looked up)
chain: MAQQAADKYLYVDKNFINNPLAQADWAAKKLVWVPSDKSGFEPASLKEEVGEEAIVELVENGKKVKVNKDDIQKMNPPKFSKVEDMAELTCLNEASVLHNLKERYYSGLIYTYSGLFCVVINPYKNLPIYSEEIVEMYKGKKRHEMPPHIYAITDTAYRSMMQDREDQSILCTGESGAGKTENTKKVIQYLAYVASSHKSKKDQGELERQLLQANPILEAFGNAKTVKNDNSSRFGKFIRINFDVNGYIVGANIETYLLEKSRAIRQAKEERTFHIFYYLLSGAGEHLKTDLLLEPYNKYRFLSNGHVTIPGQQDKDMFQETMEAMRIMGIPEEEQMGLLRVISGVLQLGNIVFKKERNTDQASMPDNTAAQKVSHLLGINVTDFTRGILTPRIKVGRDYVQKAQTKEQADFAIEALAKATYERMFRWLVLRINKALDKTKRQGASFIGILDIAGFEIFDLNSFEQLCINYTNEKLQQLFNHTMFILEQEEYQREGIEWNFIDFGLDLQPCIDLIEKPAGPPGILALLDEECWFPKATDKSFVEKVMQEQGTHPKFQKPKQLKDKADFCIIHYAGKVDYKADEWLMKNMDPLNDNIATLLHQSSDKFVSELWKDVDRIIGLDQVAGMSETALPGAFKTRKGMFRTVGQLYKEQLAKLMATLRNTNPNFVRCIIPNHEKKAGKLDPHLVLDQLRCNGVLEGIRICRQGFPNRVVFQEFRQRYEILTPNSIPKGFMDGKQACVLMIKALELDSNLYRIGQSKVFFRAGVLAHLEEERDLKITDVIIGFQACCRGYLARKAFAKRQQQLTAMKVLQRNCAAYLKLRNWQWWRLFTKVKPLLQVSRQEEEMMAKEEELVKVREKQLAAENRLTEMETLQSQLMAEKLQLQEQLQAETELCAEAEELRARLTAKKQELEEICHDLEARVEEEEERCQHLQAEKKKMQQNIQELEEQLEEEESARQKLQLEKVTTEAKLKKLEEEQIILEDQNCKLAKEKKLLEDRIAEFTTNLTEEEEKSKSLAKLKNKHEAMITDLEERLRREEKQRQELEKTRRKLEGDSTDLSDQIAELQAQIAELKMQLAKKEEELQAALARVEEEAAQKNMALKKIRELESQISELQEDLESERASRNKAEKQKRDLGEELEALKTELEDTLDSTAAQQELRSKREQEVNILKKTLEEEAKTHEAQIQEMRQKHSQAVEELAEQLEQTKRVKANLEKAKQTLENERGELANEVKVLLQGKGDSEHKRKKVEAQLQELQVKFNEGERVRTELADKVTKLQVELDNVTGLLSQSDSKSSKLTKDFSALESQLQDTQELLQEENRQKLSLSTKLKQVEDEKNSFREQLEEEEEAKHNLEKQIATLHAQVADMKKKMEDSVGCLETAEEVKRKLQKDLEGLSQRHEEKVAAYDKLEKTKTRLQQELDDLLVDLDHQRQSACNLEKKQKKFDQLLAEEKTISAKYAEERDRAEAEAREKETKALSLARALEEAMEQKAELERLNKQFRTEMEDLMSSKDDVGKSVHELEKSKRALEQQVEEMKTQLEELEDELQATEDAKLRLEVNLQAMKAQFERDLQGRDEQSEEKKKQLVRQVREMEAELEDERKQRSMAVAARKKLEMDLKDLEAHIDSANKNRDEAIKQLRKLQAQMKDCMRELDDTRASREEILAQAKENEKKLKSMEAEMIQLQEELAAAERAKRQAQQERDELADEIANSSGKGALALEEKRRLEARIAQLEEELEEEQGNTELINDRLKKANLQIDQINTDLNLERSHAQKNENARQQLERQNKELKVKLQEMEGTVKSKYKASITALEAKIAQLEEQLDNETKERQAACKQVRRTEKKLKDVLLQVDDERRNAEQYKDQADKASTRLKQLKRQLEEAEEEAQRANASRRKLQRELEDATETADAMNREVSSLKNKLRRGDLPFVVPRRMARKGAGDGSDEEVDGKADGAEAKPAE
notes: non-muscle myosin IIA heavy chain, human, precipitated and detected with anti-myosin IIA antibodies; also called non-muscle myosin IIA; source: endogenous, primary human macrophages (lysate or fixed cells)
For B1, which “coprecipitated amount relative to LSP1-GFP” value [3] is on record?
Its value is 1.6 fold.
